From paper PMC4538832, “Structures of the T. brucei kRNA editing factor MRB1590 reveal unique RNA-binding pore motif contained within an ABC-ATPase fold” (Nucleic Acids Research, 2015)

Biological target: the molecule itself
Assay: SEC; Superdex 200; 5 mg/ml protein; 20 mM Tris-HCl pH 7.5, 300 mM NaCl, 5% glycerol; elution volume compared with standard proteins

B1: MRB1590(10–668) (domain or fragment, T. brucei, UniProt Q57ZF2 10-668, looked up)
chain: YRGGRGGGRGHSHWHNNAPMERGGHMPSNNEGAAISSGSTGFSPLMDFFHSVEGRNYGELRSLTNETYQISENVRCTFLSIQSDPFAPGSQVRLVCPCTFSLEKVLQTTDLAAANPCRRVAAEDFILRSFHAGYRNGIPRRTSGAVQVLRPSQHVLERSTVGLVKAHQQKSGMQAEIEIFARVKLPGHGRRIDGHGAIDIFYNELVPLLEQCVVGLNEEDLHQHVICVHDQEVLRSNLLGAGYVAFVANGAILPRDAGNSDKPLRDNAVPFQSPKSLECSFTLPHSGKTITGMGLPPGLTLIAGGGFHGKSTLLRALEVGIYNHVPDDGRTYVVVDPTAVKIRAEDRRSVHGVDISPFINNLPFGKTTNFFVTADASGSTSQAANIMEALELGSQLLLLDEDTCATNLMYRDALMQMLVPRAQEPITPFVERVADLSQNHGVSSIMVIGGSGQYFPQARVVLVMNAYQISDCTKEAKEIASNSSLPALNPPGDTASVFIPDVNRCFDPDGSFTTVRRRRGREGTKVSGIGTESIRFSEETIDLSMVEQIVEEGQVNAIAQCLALLYDGEPRIVPEMTTKGGALTQLPSPGGVCEIQRGKFNSNFSSMIAGCCSHQHDKRLELRTPSCYLPRGFTSATRHIEIGAALNRLRTLRTVTAKR
notes: MRB1590, Trypanosoma brucei, residues 10-668 (N-terminal truncation of the full length protein); also called MRB1590–AMP–PNP complex; MRB1590-ADP, crystal form 2 (with poly-U); source: E. coli C41(DE3), purified (nickel-nitrilotriacetic acid column)
stoichiometry N: 2
